{"source": "the domain aggregation screens of Martell et al. (2025)", "data": [{"test": "soluble fraction after stress (log2 fold change); higher = more stays soluble; pooled small domains, quantitative proteomics", "details": "stress: pH 4", "procedure,_shortened": "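Custom libraries of small protein domains were pooled and measured with high-throughput quantitative proteomics after pH 4 stress. The read-out is the fold change in the amount of each domain that stays soluble after the acid stress, taken as a measure of aggregation propensity. Fold changes are on a log2 scale, and higher values mean more of the domain stayed soluble.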", "values": [{"sequence": "HMDFTMSEIQTAMAALPRGYRTVVQLYLVDGYSHKEIAEMLGVDVNTSKSQLSRGRKQLQAFLAAMS", "soluble fraction (log2)": -0.602}, {"sequence": "HMDFYIVLGVDRAASVSDVKRAYRRLARKYHPDINPGDREAEAFFLRVTEAYETLIDPDRRQDYDVNG", "soluble fraction (log2)": -1.31}, {"sequence": "HMDFYPARVKWFNKSKGFGFANIFKSNDDIFLHIETLKRSGLSDLETGEAIVLTVTEGPRGKMADTILTWD", "soluble fraction (log2)": -0.411}, {"sequence": "HMDGDFGMNLDWQPSEHFPTLARQAGIPADHITAEAIAEFRSYWIGQGKAMTQYQWDHKLLTNLKATKTR", "soluble fraction (log2)": 0.106}, {"sequence": "HMDGEAQTYVEYGKWFPADLPLEAVRQLADGVPVTKELVAALNPRRSEWEEIKAGLDKIGYPNELL", "soluble fraction (log2)": -0.567}, {"sequence": "HMDGEITLYKVVGYIKASDFDDKKNGFVIADDYITKRQAEDTMYEWKRKKTYPYLEIKEYKGKDPYK", "soluble fraction (log2)": -0.0464}, {"sequence": "HMDGLAEQLFNILREELESGDYKPGQKLMSESALAQKYGVSRLTVRAAIARLSALDYVETRNGEGSFVKKR", "soluble fraction (log2)": -0.0881}, {"sequence": "HMDGLDFIINENGKIANINEEGELLAKGENIMLGYYKDSISTNNTINNGWLHTGDIAKIDNDGFIYL", "soluble fraction (log2)": -0.123}, {"sequence": "HMDGMNEELYQKFFALVGNPDEGKRISQAKAAQALGYSSAVVSAYKNRTYNGNIKAFEDAVQAWLKREERR", "soluble fraction (log2)": 0.141}, {"sequence": "HMDGPELYESMKAIVPDQLDRTIFLTGGAYTPRAQEFLARVPNQQMEKPFEFEALRSLLARLT", "soluble fraction (log2)": -0.199}, {"sequence": "HMDGTEVTTEPPGAQVEYEGKQFGPTPARIPGLVAGKSLHITLPGYLEVKPKIKAVPKDGEPLSFTLTAI", "soluble fraction (log2)": 0.224}, {"sequence": "HMDGVEVVTKPAGAQIEFAGKSYGPSPVHIPGLVAGSQLILRLPGFQAATVRLRTAPDKSKALEYTLQPA", "soluble fraction (log2)": -0.0155}, {"sequence": "HMDGVLVYKEGMTVADMATGLGKTIAQVVMKLMQLGIMANQNQSVDRETVELVALDFGYELKD", "soluble fraction (log2)": -1.39}, {"sequence": "HMDGVSAEAVKSHIKTLIDGEGAKILSDDTLVDLLNAKGFDIARRTVAKYREAMGIGSSVQRRRQKKMG", "soluble fraction (log2)": -0.0273}, {"sequence": "HMDGYLQLASKKNELITQLKTPPKPKRLFKDFEDRVYLITEYKVFVVSIFQNEFRLRPVNKDDFYRYTT", "soluble fraction (log2)": -0.134}, {"sequence": "HMDGYTAVDKAVSDQYYTKENQLYFVSMGNFFSLGAKKIEGADISSFQILTTEYARDLQHLYFNGKV", "soluble fraction (log2)": -0.367}, {"sequence": "HMDHFFSKYDSIVNHTVQKKETLFGISKKYGLTINEVIKFNPGIQIDKLKRRSVLIIPLMKKN", "soluble fraction (log2)": -0.0453}, {"sequence": "HMDHKSALQELLAPRGLQPSYRLVEEAGPAHARVFTSEVSVDGVARGSGTGTTIKMSEQAAAREALASLG", "soluble fraction (log2)": 0.318}, {"sequence": "HMDHKSQLQEWAQSTLGETPRYVTIAETGPDHDKELTVELIIGRKSYSIAKGKSKKQAEQSAARIALGLLM", "soluble fraction (log2)": -0.504}, {"sequence": "HMDHKSSYWSVKEANLFPELLKQFGSQWSLISDKLGTKSTTMVRNYYQRNAAQLGWKSVVEEADFKRNA", "soluble fraction (log2)": 0.0284}, {"sequence": "HMDHTYKHIELTGSSEKGIEEAVQNALAKASESVQNMRWLEVTDTRGHIEDGRVAHWQVTVKVGFTL", "soluble fraction (log2)": 0.22}, {"sequence": "HMDHVEDRMVLEVVLKKLTEEERRIVMLHAVSGLKHREIAKALDIPLSTVLSKYKRTLKKLEAYLMEME", "soluble fraction (log2)": -0.936}, {"sequence": "HMDIADKLTKREFEIFIAIAMNKSRFDIANELGLSAKTVSNGLTVIKRKLNAVPSQFSAIAAKHGYIG", "soluble fraction (log2)": -0.408}, {"sequence": "HMDIAYFSNAELNDAFIQFLNMRQEAGKQLNGYQIQILTEKLERVADTDEDRISAVKNAIAGGWSNFYPPK", "soluble fraction (log2)": -0.366}, {"sequence": "HMDIDASEVRGIISQYINEPDGRVSYILETIQKKYRYLPEEAIRIVAQELEVPLTQLFGVATFYAAFSL", "soluble fraction (log2)": 0.0192}, {"sequence": "HMDIDLNTIKKITLDDIHAFLSYLTTTYHSKAATRARKASSIRVFFNYLSAKANLIEVNPAQNLETPKLD", "soluble fraction (log2)": 0.0886}, {"sequence": "HMDIEELLSRSTDRLSRQTEIRRLLADAQGRPNISSLARRFKVARRTVIRDLQELIRRGEVPPEIYPK", "soluble fraction (log2)": -0.0624}, {"sequence": "HMDIEFSDELRTFIDEWSKKEGGLVMMLHRIQNEYGFIPRTAAEKLSLISGIPLARIYGVITFYHFFKT", "soluble fraction (log2)": -1.01}, {"sequence": "HMDIGNKIKELRTEQKMTQSDLAERLGVTKSSISSYENGSRLPSYDILLKIARIFKVSTDILLG", "soluble fraction (log2)": -0.637}, {"sequence": "HMDIGTRQRIIAAAMELFRQKGMDGMSMRELAERAGVNKGLLHYYFTTKEAIFREVFVHQVEM", "soluble fraction (log2)": -0.0208}, {"sequence": "HMDIIIEEGIDESLSTDDAILDLLGRASDAFSNAQKALLEGDLGSYQKLIEQAERLVKKATELLGENN", "soluble fraction (log2)": -1.1}, {"sequence": "HMDIMNNILINRIKKILTEQNMSKADLSRLTGISNSSLSEYLNGKYEPKQDKIALIAKALHVSPAWLMGF", "soluble fraction (log2)": 0.166}, {"sequence": "HMDINNTNFSRDVDNLLQNEEFIKWRIFRTKEWEDYWENFRKENPHMEDALQEAISRFNAVK", "soluble fraction (log2)": -0.736}, {"sequence": "HMDINVDILPLLKTMTDTLRKVIELDIPFLKDARVQRVNSLDELLLRADITTAEKFRKVFEAYQIEADFGK", "soluble fraction (log2)": -1.05}, {"sequence": "HMDIPDIGHNVRIEVDGHNGKTTHEGIILHPAAPNHITIKLANGYNASYKLEEIINIEILGELGDDSKI", "soluble fraction (log2)": -0.863}, {"sequence": "HMDIPITFEQLPAKAQAFVKQYFKIEEIASVWRDDDIHDQDYKVYFNDGSEIEFYANGDWEEV", "soluble fraction (log2)": -0.468}, {"sequence": "HMDIPTSAEAVRAYLASGFIKGIGEATARMLVDKFGAETLEIIKTEPMKLTKISGIGPKKAKMIHESYLEK", "soluble fraction (log2)": -0.0191}, {"sequence": "HMDIRLMPGTVLTREYQGIEHRVTVAQDGQYEFEGRRYPSLSMIAREITGTRWSGPLFFGVK", "soluble fraction (log2)": 0.141}, {"sequence": "HMDISEIEKRLLDFLEMPRSRKEIAEHLGIRTISYAIQTYITPLIDKKLVKMTIPESPRSHSQQYVRIN", "soluble fraction (log2)": -0.125}, {"sequence": "HMDISRMNLSQTERAVLSVLDSQPLHTEEIIASADLRAGAIHSALISLQLKGLIKQLPGNLYVK", "soluble fraction (log2)": -0.035}, {"sequence": "HMDITKPKISFEPGEMVRVVDGPFNDFSGVVEEVNYEKSKVRVAVLIFGRSTPVELQFNQIEK", "soluble fraction (log2)": -0.523}, {"sequence": "HMDITTIIADVPGPKTQIKVDIKNTSLHIFGGMNFKKEIDIGDNKEIINIKYINGTLTVKLKT", "soluble fraction (log2)": -0.466}, {"sequence": "HMDIVGAINKIESMKQDRYLAMHPYSITHSADGYYRTYLPADDGKRKQIKKKSKSDLEKVVIDYWTKRS", "soluble fraction (log2)": "≥ 0.43"}, {"sequence": "HMDIVKVYTTARAGETLASVAKRTGVDVARLAQWNDIPLKRAKQKLKTGKALALWVQREHASAYSNAPP", "soluble fraction (log2)": 0.22}, {"sequence": "HMDIVQLSEKINVMKMEIPAQAIGKTVLEVNFRARFDLNIIAIENGGKLVEVIKPDYVFREGDILFLSGS", "soluble fraction (log2)": -1.31}, {"sequence": "HMDIYENIDKELSKQGKSRRKLAIAAGIPPSTFQSMMERKRGLSVENLRKIAEVLNLKWYDLL", "soluble fraction (log2)": 0.135}, {"sequence": "HMDIYKKFIIPATYFGSRLDHVLSELLPELSRSKIQNMIKQNLVMINGNHAAQKQKVVGDEEIIIKDI", "soluble fraction (log2)": -0.089}, {"sequence": "HMDKAALGQKLRQARLDKGYTQQSLSEKADIGEVYLSEIERGLKMPSMNLFIKLITALDISADYILR", "soluble fraction (log2)": -1}, {"sequence": "HMDKDTFGEFENVKLTEEEYNKLVEKLGENNTKLMIEELSTGIASKGYKYKSHYATILSWSRRRVTKLQER", "soluble fraction (log2)": -1.18}, {"sequence": "HMDKEIKILKEKRLDDVQQAIRELSPQKRRVVEMKLYHNSTNQEVADKLAISVNTVKSLYTSALHDLRRIL", "soluble fraction (log2)": 0.109}]}]}
